Measurements as given in article PMC5394233, “Structural and functional analysis of the human POT1-TPP1 telomeric complex” (Nature Communications, 2017).

Assays:
[1] = target: human POT1 C-terminus (POT1C), residues 330-634, wild type (human) (UniProt Q9NUX5); assay: ITC; MicroCal iTC200; 100 uM TPP1(PBD) injected into the cell with 10 uM POT1C; 25 C; 25 mM Hepes pH 7.5, 0.1 M KCl, 5% glycerol, 1 mM TCEP; 16 injections of 2.47 ul; proteins purified separately
[2] = target: human POT1C (330-634) A532P (human) (UniProt Q9NUX5); assay: as above
[3] = target: human POT1C (330-634) C591W (human) (UniProt Q9NUX5); assay: as above
[4] = target: human POT1C (330-634) L343F (human) (UniProt Q9NUX5); assay: as above
human POT1C (330-634) L343F (human), sequence (Q9NUX5 330-634 L343F): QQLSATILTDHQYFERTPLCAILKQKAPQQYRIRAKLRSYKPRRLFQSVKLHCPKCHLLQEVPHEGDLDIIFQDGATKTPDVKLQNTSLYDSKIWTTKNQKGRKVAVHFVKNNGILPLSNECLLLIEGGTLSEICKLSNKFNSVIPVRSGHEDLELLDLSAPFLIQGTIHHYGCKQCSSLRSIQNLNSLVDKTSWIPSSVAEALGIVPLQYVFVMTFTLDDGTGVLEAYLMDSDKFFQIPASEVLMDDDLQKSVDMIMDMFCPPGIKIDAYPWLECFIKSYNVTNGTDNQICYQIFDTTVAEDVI

[5] = target: human POT1C (330-634) P446Q (human) (UniProt Q9NUX5); assay: as above
[6] = target: human POT1C (330-634) P475L (human) (UniProt Q9NUX5); assay: as above
[7] = target: human POT1C (330-634) Q623H (human) (UniProt Q9NUX5); assay: as above
[8] = target: human POT1C (330-634) R477T (human) (UniProt Q9NUX5); assay: as above
[9] = target: T1, human POT1C (residues 330-634) Q623H (human, UniProt Q9NUX5 330-634, Q623H); assay: ITC; 100 uM TPP1(PBD) injected into the cell with 10 uM POT1C; 25 °C; 25 mM Hepes pH 7.5, 0.1 M KCl, 5% glycerol, 1 mM TCEP; 16 injections of 2.47 ul; three independent experiments; details: both partners purified
T1 construct: POT1, human, C-terminal portion (OB-fold and HJR domain), residues 330-634, with the germline melanoma-associated mutation Q623H; PDB 5UN7 holds the wild-type parent with the same limits; The methods describe tag cleavage by TEV for the co-purified complex; For ITC the proteins were purified separately; also called POT1C Q623H; source: E. coli ScarabXpress T7 lac, purified (Ni-NTA, Poros HS/HQ, …)
T1 sequence (looked up): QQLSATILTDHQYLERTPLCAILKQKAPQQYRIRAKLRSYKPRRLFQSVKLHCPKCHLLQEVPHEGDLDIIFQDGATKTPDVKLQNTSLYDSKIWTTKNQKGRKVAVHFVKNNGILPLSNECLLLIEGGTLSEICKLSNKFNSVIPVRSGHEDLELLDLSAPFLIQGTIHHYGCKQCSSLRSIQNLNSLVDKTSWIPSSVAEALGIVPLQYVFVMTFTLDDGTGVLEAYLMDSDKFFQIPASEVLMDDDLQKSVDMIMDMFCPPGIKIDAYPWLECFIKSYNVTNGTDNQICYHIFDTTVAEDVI

Row | Molecule | Kd [1] | Kd [2] | Kd [3] | Kd [4] | Kd [5] | Kd [6] | Kd [7] | Kd [8] | Kd [9]
1 | human TPP1 POT1-binding domain, TPP1(PBD), residues 255-337 (from UniProt Q96AP0 255-337) (domain or fragment) | 120 nM | 117 nM | 870 nM | 114 nM | 289 nM | 164 nM | 471 nM | 123 nM | –
2 | human TPP1(PBD), residues 255-337 (domain or fragment) SQLLDEMREDQEHQGALVCLAESCLTLEGPCTAPPVTHWAASRCKATGEAVYTVPSSMLCISENDQLILSSLGPCQRTQGPEL | – | – | – | – | – | – | – | – | 472 nM
